In paper PMC12416549 (2024):

Target: T1, TNFR1 (Homo sapiens, UniProt P19438)
T1 chain: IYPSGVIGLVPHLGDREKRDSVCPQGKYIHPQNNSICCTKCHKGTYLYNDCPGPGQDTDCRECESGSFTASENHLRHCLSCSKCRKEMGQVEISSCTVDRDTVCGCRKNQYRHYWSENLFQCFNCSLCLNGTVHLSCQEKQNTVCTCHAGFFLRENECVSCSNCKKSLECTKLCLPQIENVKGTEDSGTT
Assay: yeast display SC50

Binder | apparent Kd (screen) [nM]
E73V (designed binder) MTLQELLREEALRRAEAEAFRYALELLAEKFPEQKEYLLDLAEEIESQIRSLSGVDVEDVRKFLDKEWAWVKVLLAEHPAELAEVEAARAARLAELRAEVEAKVAA | 1.05
M1S (designed binder) STLQELLREEALRRAEAEAFRYALELLAEKFPEQKEYLLDLAEEIESQIRSLSGVDVEDVRKFLDKEWAWVKELLAEHPAELAEVEAARAARLAELRAEVEAKVAA | 0.539
A69T (designed binder) MTLQELLREEALRRAEAEAFRYALELLAEKFPEQKEYLLDLAEEIESQIRSLSGVDVEDVRKFLDKEWTWVKELLAEHPAELAEVEAARAARLAELRAEVEAKVAA | 0.718
S53L (designed binder) MTLQELLREEALRRAEAEAFRYALELLAEKFPEQKEYLLDLAEEIESQIRSLLGVDVEDVRKFLDKEWAWVKELLAEHPAELAEVEAARAARLAELRAEVEAKVAA | 2.25
R8M (designed binder) MTLQELLMEEALRRAEAEAFRYALELLAEKFPEQKEYLLDLAEEIESQIRSLSGVDVEDVRKFLDKEWAWVKELLAEHPAELAEVEAARAARLAELRAEVEAKVAA | 0.49
E81F (designed binder) MTLQELLREEALRRAEAEAFRYALELLAEKFPEQKEYLLDLAEEIESQIRSLSGVDVEDVRKFLDKEWAWVKELLAEHPAFLAEVEAARAARLAELRAEVEAKVAA | 0.718
E73N (designed binder) MTLQELLREEALRRAEAEAFRYALELLAEKFPEQKEYLLDLAEEIESQIRSLSGVDVEDVRKFLDKEWAWVKNLLAEHPAELAEVEAARAARLAELRAEVEAKVAA | 1.86
Y37P (designed binder) MTLQELLREEALRRAEAEAFRYALELLAEKFPEQKEPLLDLAEEIESQIRSLSGVDVEDVRKFLDKEWAWVKELLAEHPAELAEVEAARAARLAELRAEVEAKVAA | 18.3
A88N (designed binder) MTLQELLREEALRRAEAEAFRYALELLAEKFPEQKEYLLDLAEEIESQIRSLSGVDVEDVRKFLDKEWAWVKELLAEHPAELAEVEANRAARLAELRAEVEAKVAA | 0.718
K103D (designed binder) MTLQELLREEALRRAEAEAFRYALELLAEKFPEQKEYLLDLAEEIESQIRSLSGVDVEDVRKFLDKEWAWVKELLAEHPAELAEVEAARAARLAELRAEVEADVAA | 0.718
I49M (designed binder) MTLQELLREEALRRAEAEAFRYALELLAEKFPEQKEYLLDLAEEIESQMRSLSGVDVEDVRKFLDKEWAWVKELLAEHPAELAEVEAARAARLAELRAEVEAKVAA | 0.869
S47P (designed binder) MTLQELLREEALRRAEAEAFRYALELLAEKFPEQKEYLLDLAEEIEPQIRSLSGVDVEDVRKFLDKEWAWVKELLAEHPAELAEVEAARAARLAELRAEVEAKVAA | 3.3
Q4L (designed binder) MTLLELLREEALRRAEAEAFRYALELLAEKFPEQKEYLLDLAEEIESQIRSLSGVDVEDVRKFLDKEWAWVKELLAEHPAELAEVEAARAARLAELRAEVEAKVAA | 0.446
R89H (designed binder) MTLQELLREEALRRAEAEAFRYALELLAEKFPEQKEYLLDLAEEIESQIRSLSGVDVEDVRKFLDKEWAWVKELLAEHPAELAEVEAAHAARLAELRAEVEAKVAA | 0.539
